According to publication PMC9352680, “A comprehensive thermodynamic model for RNA binding by the Saccharomyces cerevisiae Pumilio protein PUF4”:

T1: PUF4 RNA-binding domain (Saccharomyces cerevisiae, UniProt P25339 537-888)
T1 sequence: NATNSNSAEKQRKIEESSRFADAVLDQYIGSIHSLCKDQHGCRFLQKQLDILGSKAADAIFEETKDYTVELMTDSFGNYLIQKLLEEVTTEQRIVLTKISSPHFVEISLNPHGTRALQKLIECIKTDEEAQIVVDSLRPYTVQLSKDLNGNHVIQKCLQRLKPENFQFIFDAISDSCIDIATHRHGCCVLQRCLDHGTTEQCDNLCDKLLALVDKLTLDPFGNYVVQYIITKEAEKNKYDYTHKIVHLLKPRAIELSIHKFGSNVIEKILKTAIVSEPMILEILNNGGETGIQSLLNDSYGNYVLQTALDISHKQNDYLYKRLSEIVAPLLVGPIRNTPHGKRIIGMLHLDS


Molecular target: T1, PUF4 RNA-binding domain
Assay: Mg; RNA-MaP; 20 mM Na-HEPES pH 7.4, 30 mM KOAc, 0.75 mM MgCl2, 0.1% Tween-20, 5% glycerol, 0.1 mg/mL BSA, 2 mM DTT; 25 C; 0.0125-409.6 nM protein
Conditions: tags: N-His6-TEV cleaved; C-SNAP kept, Cy3B-labelled; label: tethered on chip by stalled RNA polymerase

Row | Binder | Kd
1 | Ic_S4_P5E.1_K5.1_C5.1_H5.1_A5.1_[A7T]_F5.1_[T8G]_[T9C]_[A10T]_T5.1 (ssRNA) RNA: UUUGACAACUGAUCGUUCUUUCUUGUAUUUGCUUUCUUUCUCGAUCAGUUGUCUUU | 80.4 nM
2 | Ic_S4_P5E.1_K5.1_C5.1_H5.1_A5.1_[T6G]_[A7T]_F5.1_[T8G]_[T9C]_[A10C]_T5.1 (ssRNA) RNA: UUUGACAACUGAUCGUUCUUUCUUGUAUGUGCCUUCUUUCUCGAUCAGUUGUCUUU | 67.2 nM
3 | Ic_S4_P5E.1_K5.1_C5.1_H5.1_A5.1_[T6G]_[A7C]_F5.1_[T8C]_[T9C]_[A10T]_T5.1 (ssRNA) RNA: UUUGACAACUGAUCGUUCUUUCUUGUAUGCCCUUUCUUUCUCGAUCAGUUGUCUUU | 527 nM
4 | Ic_S4_P5E.1_K5.1_C5.1_H5.1_A5.1_[T6A]_F5.1_[T9G]_[A10G]_T5.1 (ssRNA) RNA: UUUGACAACUGAUCGUUCUUUCUUGUAUAAUGGUUCUUUCUCGAUCAGUUGUCUUU | 16.6 nM
5 | Ic_S4_P5E.1_K5.1_C5.1_H5.1_A5.1_[T5A]_[A7T]_F5.1_[T9G]_[A10C]_T5.1 (ssRNA) RNA: UUUGACAACUGAUCGUUCUUUCUUGUAAUUUGCUUCUUUCUCGAUCAGUUGUCUUU | 46.7 nM
6 | Ic_S4_P5E.1_K5.1_C5.1_H5.1_A5.1_[T5C]_[T6G]_[A7C]_F5.1_[T8A]_[T9G]_[A10C]_T5.1 (ssRNA) RNA: UUUGACAACUGAUCGUUCUUUCUUGUACGCAGCUUCUUUCUCGAUCAGUUGUCUUU | 882 nM
7 | Ic_S4_P5E.1_K5.1_C5.1_H5.1_A5.1_[T5A]_[A7T]_F5.1_[T8C]_[T9C]_[A10T]_T5.1 (ssRNA) RNA: UUUGACAACUGAUCGUUCUUUCUUGUAAUUCCUUUCUUUCUCGAUCAGUUGUCUUU | 179 nM
8 | Ic_S4_P5E.1_K5.1_C5.1_H5.1_A5.1_[T5A]_[T6A]_[A7C]_F5.1_[T8C]_[T9G]_[A10C]_T5.1 (ssRNA) RNA: UUUGACAACUGAUCGUUCUUUCUUGUAAACCGCUUCUUUCUCGAUCAGUUGUCUUU | 703 nM
9 | Ic_S4_P5E.1_K5.1_C5.1_H5.1_A5.1_[T5C]_[T6A]_F5.1_[T8A]_[T9C]_[A10T]_T5.1 (ssRNA) RNA: UUUGACAACUGAUCGUUCUUUCUUGUACAAACUUUCUUUCUCGAUCAGUUGUCUUU | 80.6 nM
10 | Ic_S4_P5E.1_K5.1_C5.1_H5.1_A5.1_[T6C]_[A7G]_F5.1_[T8C]_[T9C]_T5.1 (ssRNA) RNA: UUUGACAACUGAUCGUUCUUUCUUGUAUCGCCAUUCUUUCUCGAUCAGUUGUCUUU | 850 nM
11 | Ic_S4_P5E.1_K5.1_C5.1_H5.1_A5.1_[T5C]_[A7T]_F5.1_[T8A]_[T9C]_[A10G]_T5.1 (ssRNA) RNA: UUUGACAACUGAUCGUUCUUUCUUGUACUUACGUUCUUUCUCGAUCAGUUGUCUUU | 561 nM
12 | Ic_S4_P5E.1_K5.1_C5.1_H5.1_A5.1_[T5C]_[T6A]_[A7G]_F5.1_[T9C]_[A10C]_T5.1 (ssRNA) RNA: UUUGACAACUGAUCGUUCUUUCUUGUACAGUCCUUCUUUCUCGAUCAGUUGUCUUU | 13.2 nM
13 | Ic_S4_P5E.1_K5.1_C5.1_H5.1_A5.1_[T5C]_[T6A]_[A7T]_F5.1_[T8A]_[T9C]_[A10G]_T5.1 (ssRNA) RNA: UUUGACAACUGAUCGUUCUUUCUUGUACAUACGUUCUUUCUCGAUCAGUUGUCUUU | 14.5 nM
14 | Ic_S4_P5E.1_K5.1_C5.1_H5.1_A5.1_[T6A]_[A7C]_F5.1_[T8C]_[T9C]_[A10G]_T5.1 (ssRNA) RNA: UUUGACAACUGAUCGUUCUUUCUUGUAUACCCGUUCUUUCUCGAUCAGUUGUCUUU | 117 nM
15 | Ic_S4_P5E.1_K5.1_C5.1_H5.1_A5.1_[T5C]_[T6G]_[A7C]_F5.1_[T8G]_[A10C]_T5.1 (ssRNA) RNA: UUUGACAACUGAUCGUUCUUUCUUGUACGCGUCUUCUUUCUCGAUCAGUUGUCUUU | > 2300 nM
16 | Ic_S4_P5E.1_K5.1_C5.1_H5.1_A5.1_[T5A]_[T6C]_[A7T]_F5.1_[T8C]_[T9A]_[A10T]_T5.1 (ssRNA) RNA: UUUGACAACUGAUCGUUCUUUCUUGUAACUCAUUUCUUUCUCGAUCAGUUGUCUUU | 325 nM
17 | Ic_S4_P5E.1_K5.1_C5.1_H5.1_A5.1_[T6C]_[A7T]_F5.1_[T8C]_[A10G]_T5.1 (ssRNA) RNA: UUUGACAACUGAUCGUUCUUUCUUGUAUCUCUGUUCUUUCUCGAUCAGUUGUCUUU | 19.1 nM
18 | Ic_S4_P5E.1_K5.1_C5.1_H5.1_A5.1_[T5A]_F5.1_[T8A]_[A10T]_T5.1 (ssRNA) RNA: UUUGACAACUGAUCGUUCUUUCUUGUAAUAAUUUUCUUUCUCGAUCAGUUGUCUUU | 95.2 nM
19 | Ic_S4_P5E.1_K5.1_C5.1_H5.1_A5.1_[T5C]_[T6C]_[A7C]_F5.1_[T8G]_[T9C]_[A10G]_T5.1 (ssRNA) RNA: UUUGACAACUGAUCGUUCUUUCUUGUACCCGCGUUCUUUCUCGAUCAGUUGUCUUU | 1670 nM
20 | UCUCUUUGUAUCUUCUCUCUU (ssRNA) [Ib_S1_P4E.1_K4.1_C4.1_H4.1_A4.1_[A6C]_F4.1_[A9C]_T4.1] | 92.5 nM
21 | UCUCUUUGUAUCUUUUCUCUU (ssRNA) [Ib_S1_P4E.1_K4.1_C4.1_H4.1_A4.1_[A6C]_F4.1_[A9T]_T4.1] | 20.9 nM
22 | UCUCUUUGUACAUUAUCUCUU (ssRNA) [Ic_S1_P4E.1_K4.1_C4.1_H4.1_A4.1_[T5C]_F4.1_T4.1] | 0.601 nM
23 | UCUCUUUGUAUUUUCUCUCUU (ssRNA) [Ic_S1_P4E.1_K4.1_C4.1_H4.1_A4.1_[A6T]_F4.1_[A9C]_T4.1] | 36 nM
24 | UCUCUUUGUAUUUUUUCUCUU (ssRNA) [Ib_S1_P4E.1_K4.1_C4.1_H4.1_A4.1_[A6T]_F4.1_[A9T]_T4.1] | 20.9 nM
25 | UCUCUUUGUAUGUUUUCUCUU (ssRNA) [Ic_S1_P4E.1_K4.1_C4.1_H4.1_A4.1_[A6G]_F4.1_[A9T]_T4.1] | 40 nM
